± gives the uncertainty stated by the source.

A short description of the series: amyloid nucleation score (Sup35N fusion, yeast selection) (log enrichment); library NNK2; higher = more nucleation; inactive = no reads after selection. The method in brief:
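Nucleation score: DiMSum log enrichment of output over input reads, centred on the mode score of non-aggregating sequences. Only sequences with at least 100 input reads were kept. Reads came from Illumina sequencing of plasmid inserts before and after 7 days of growth at 30°C without adenine and uracil, in psi-negative yeast expressing Sup35N fused to peptides of 20 random codons after 24 hours of induction with 100 μM copper sulfate.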
As for AVLFRRVAFRHNWPW, the amyloid nucleation score amounted to 0.995 ± 0.68.
Next, WRCSSISCDCDARLGRMRVS: 0.697 ± 0.42; FFMNNALFRGWG: 2.97 ± 0.15.
In the case of FCPVHSGISS it was -0.578 ± 0.79; in that of TICGSCT, 0.045 ± 0.79.
Next, EEVVVVWFIRDKDLALKLVV: “inactive”; CECLRDESER: 2.1 ± 0.29; DIWPNDLGYVFVLSA: -0.218 ± 0.53.
Turning to MRTNRLKSVV, the amyloid nucleation score is 0.275 ± 0.33.
Next, FRRVLCYKYYSFA: 2.42 ± 0.14; LVCGLDGLVCS: 0.111 ± 0.56.
SSWAGVMYIVHNTKVHSYTI came in with an amyloid nucleation score of 3.19 ± 0.064.
In the case of FPLVWA it was 0.416 ± 0.22; in that of SCHVFFVTIEGNASSANGHR, 8.14 ± 0.07.
YFGVEKDEFPPLLGMHMF: the amyloid nucleation score was -1.59 ± 0.75.
In the case of LFALLK it was -0.005 ± 0.54; in that of FCSSSVIYQKKLA, -0.782 ± 0.24; in that of TFCVRQLYLSML, 0.833 ± 0.2.
In the case of FENIDGWRLFIIARRRAIGG it was -1 ± 1; in that of KCFKVRTDLWRSC, 1.38 ± 0.53.
Next, SVIRSCVNIDSLVKVEWGAS: 6.717 ± 0.052.
PHLEGVSCVVVKHQLRS showed an amyloid nucleation score of 0.82 ± 0.17.
Next, SCMLFEAAYPRVYMYWSRRF: -1.91 ± 0.75; VAQAQQQYP: 1.08 ± 0.53; STMSFFSIGKLPEIVVGDSY: -1.24 ± 0.75.
Next, IIQRRK: -0.157 ± 0.27.
In the case of VLAFRFYFAVVLGLMIVYG it was -0.16 ± 0.62.
As for FLSLIGKSRS, the amyloid nucleation score result is “inactive”.
In the case of SLVSKIRLRGAWINSGVKTG it was 0.923 ± 0.17.
SRVFRSRMDGPFQWSGMGEV: the amyloid nucleation score came out at 2.24 ± 0.076.
In the case of FLCLLDRVIMTLFFRIAL it was 0.453 ± 0.65.
In the case of RRYHRR it was 1.42 ± 0.38.
Next, DKVDLSA: 0.053 ± 1.1; YSPSRVS: -0.493 ± 0.48.
With QQLLSMLLFNFQYGCARLYC, the amyloid nucleation score was determined as 0.072 ± 0.44.
DWWLNGLFP: the amyloid nucleation score result is “inactive”.
Next, LADTGA: 0.108 ± 0.42; PNSSNPNPMRLVFRSMSFRL: 0.269 ± 0.64; WSQRMLRSQEVPCSWWEIVT: 0.905 ± 0.13.
In the case of GVWYFANFFVVMRAVGCDVG it was 0.484 ± 0.36; in that of SAGEKWWKGMHYARGRPVRR, 0.726 ± 0.2; in that of MCTELYEDGNKPTTRSDRSA, 3.21 ± 0.1.
Next, TFVGVLNQTNH: 2.73 ± 0.13.
With VKEVRLPGTRILGRLAGSFR, the amyloid nucleation score entry is “inactive”.
In the case of AYMYTMGYRSHHVTEVVVIW it was -0.047 ± 0.49; in that of QCAVDSPYDIRKLRR, -0.086 ± 0.39.
With NYCRTIFYYCAMIYFPCLAE, the amyloid nucleation score was determined as 1.77 ± 0.22.
In the case of GGIAACPGLEINWKFDLVQW it was 0.914 ± 0.32; in that of DCWWYRLDSMYDLTYLGIGR, -1.03 ± 0.63; in that of AYASPCMQDLGRCLGRPRML, 1.21 ± 0.31.
In the case of DHFGGCYMSATRSWHDFKMG it was “inactive”.
Regarding CRKYKLRHRADDCSMYCTRL, the amyloid nucleation score worked out at 3.33 ± 0.14.
Turning to LIFRSVSVSFIPLLMKDGNG, the amyloid nucleation score is -0.042 ± 0.74.
HSYFRFTPSFLAARSKYLRH had an amyloid nucleation score of -0.498 ± 1.1.
Next, CMRVRCFSILNSAFCKCEMA: -1.62 ± 1.1; VGYLALQFLVRCMY: “inactive”; YLGVSSCLMSSSGRSLASTL: 4.39 ± 0.09.
NLRPAFHDMDKQCGG: the amyloid nucleation score was 0.045 ± 0.63.

The record behind these values is the supplement of paper PMC12042874.
